The text below walks through data of patent US20260183408A1, “POLYPEPTIDE AND USE THEREOF” (SHENZHEN CHENYANG BIOLOGICAL TECHNOLOGY CO., LTD, priority 2022, published 2026).

Ends that are not written are not given here.

First the molecules themselves.
T1: 5-HT2CR (Mus musculus, UniProt P34968)
T1 construct: The dissolved mouse hippocampal tissue extract (with 500 μg protein); from tissue; host or cells: mouse hippocampus
T1 sequence (P34968 33-459): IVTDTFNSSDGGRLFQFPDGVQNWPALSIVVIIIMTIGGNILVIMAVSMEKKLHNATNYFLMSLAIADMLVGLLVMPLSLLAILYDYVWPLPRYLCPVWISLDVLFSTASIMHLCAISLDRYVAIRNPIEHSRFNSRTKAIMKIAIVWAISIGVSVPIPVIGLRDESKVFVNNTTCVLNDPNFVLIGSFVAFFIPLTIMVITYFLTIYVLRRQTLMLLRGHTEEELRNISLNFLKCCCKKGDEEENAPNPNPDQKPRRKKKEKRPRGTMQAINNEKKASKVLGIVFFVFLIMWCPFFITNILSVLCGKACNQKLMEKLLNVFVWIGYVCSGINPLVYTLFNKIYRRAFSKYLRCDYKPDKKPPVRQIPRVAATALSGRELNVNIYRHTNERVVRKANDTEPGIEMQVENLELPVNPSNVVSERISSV

B1: IL3 region of D2R: GST fusion protein containing the third intracellular loop (IL3) region of D2R, K211-Q373 (protein)
chain: KIYIVLRRRRKRVNTKRSSRAFRAHLRAPLKGNCTHPEDMKLCTVIMKSNGSFPVNRRRVEAARRAQELEMEMLSSTSPPERTRYSPIPPSHHQLTLPDPSHHGLHSTPDSPAKPEKNGHAKDHPKIAKIFEIQTMPNGKTRTSLKTMSRRKLSQQKEKKATQ
modifications: left off: a dimerising Fc or GST; large carriers; small tags and cut ends
notes: GST fusion protein containing the third intracellular loop (IL3) region of D2R, K211-Q373

For this assay, the target named is T1, 5-HT2CR. Put plainly: GST pulldown assay for mouse hippocampal tissue with D2R fragments. The conditions noted are these: GST fusion protein of the D2R region, mouse hippocampal tissue extract, Western blotting (FIG. 4). Format: binding. An excerpt:
In order to identify the binding site of the D2R/5-HT2CR complex, full-length D2R cDNA clone (Genbank Accession No. X51645) was first amplified to obtain the cDNA fragments of the CT region of D2R (D2R-CT, T428-C443) and the third intracellular loop (IL3) region of D2R (D2R-IL3, K211-Q373). These fragments were subcloned into the BamH1/EcoR1 or BamH1/Xho1 site of pGEX-4T-3 plasmids (YouBio no: VT1255). The initiation methionine residue and the termination codon were incorporated when appropriate. All constructs were resequenced to confirm that the splicing fusion was properly achieved. E. coli BL21 viable cells (KangTi Life Technology, no: KTSM104L) were used for expression, and purification was performed to obtain the GST fusion protein containing the IL3 region of D2R (GST-D2R-IL3) and the GST fusion protein containing the CT region of D2R (GST-D2R-CT) from the bacterial lysates.
The dissolved mouse hippocampal tissue extract (with 500 μg protein) was diluted with 1×PBS/1% Triton X-100 and subsequently incubated with 20 μl of protein-GST-resin saturated with only GST protein or 15 μg of the GST fusion protein described above overnight at 4° C. Beads were washed with 1×PBS/1% Triton X-100 for 1-8 times. The bound proteins were eluted with SDS-PAGE Protein Loading Buffer (YeSen, no: 20315ES05), separated with SDS-PAGE, and subjected to Western blotting with their respective antibodies. Results were as shown in panel A of FIG. 4.
According to the method in this Example, pulldown analysis was performed using the GST fusion protein containing the KVC region of D2R (GST-D2R-KVC), the GST fusion protein containing the ES region of D2R (GST-D2R-ES), and the GST fusion protein containing the PQ region of D2R (GST-D2R-PQ), and the Western blotting results were shown in panel B of FIG. 4. […]
Turning to “KL polypeptide: K226-L240 region of D2R, SEQ ID NO: 1; tested in the pulldown as GST fusion protein GST-D2R-KL (KRSSRAFRAHLRAPL)”, the “pull down of 5-HT2CR” value is on record as “could associate with 5-HT2CR”.

Regarding “KVC region of D2R: GST fusion protein containing the KVC (K211-V270) region of D2R (KIYIVLRRRRKRVNTKRSSRAFRAHLRAPLKGNCTHPEDMKLCTVIMKSNGSFPVNRRRV; cysteine pairing not given here; also: GST fusion protein)”, the “pull down of 5-HT2CR” value was “could pull down the 5-HT2CR”. As to B1, the “pull down of 5-HT2CR” value is “could pull down the 5-HT2CR”.
